The values below come from patent publication US20190263864A1 (GENOIMMUNE THERAPEUTICS, published 2019).

The target in the experiment is T1, HLA-A0201 on the surface of T2 cells (human).
T1 construct: MHC class I molecule on TAP-deficient T2 cells
Nature of the experiment: T2 cell peptide loading, 100 µM peptide, anti-HLA-A*02:01 FITC flow cytometry. In general terms: A flow cytometer gives signals particle by particle.

Method: After centrifugation at 200 g for 5 minutes for cell collection, the collected cells were washed with phosphate buffer saline (PBS) buffer twice, before incubated with anti-HLA-A*02:01 FITC monoclonal antibody at 4° C. for 30 minutes. The mean fluorescence intensity of cells was then detected and analyzed by the flow cytometry (BD FACSJazz™) and its software.

B1: wild-type polypeptide (depicted in FILDGSYSV, SEQ ID NO:7) (peptide)
peptide: FILDGSYSV
B1: the “FI (fluorescence index)” value was determined as 1.59 and the Mean fluorescence intensity was found to be 589.

B2: mutant polypeptide's variant (depicted in FMLDGLYSV, SEQ ID NO:3) (peptide)
peptide: FMLDGLYSV
Turning to B2, the “FI (fluorescence index)” value was 2.34 and the Mean fluorescence intensity was 759.

B3: mutant polypeptide (depicted in FILDGLYSV, SEQ ID NO:1) (peptide)
peptide: FILDGLYSV
Consider B3, for which the “FI (fluorescence index)” value amounted to 1.92 and the Mean fluorescence intensity was found to be 664.

B4: mutant polypeptide's variant (depicted in FLLDGLYSL, SEQ ID NO:6) (peptide)
peptide: FLLDGLYSL
As to B4, the “FI (fluorescence index)” value stood at 1.69 and the Mean fluorescence intensity is 612.

B5: mutant polypeptide's variant (depicted in FMLDGLYSL, SEQ ID NO:5) (peptide)
peptide: FMLDGLYSL
For the molecule B5, the “FI (fluorescence index)” value is 2.14 and the Mean fluorescence intensity stood at 714.

B6: mutant polypeptide's variant (depicted in FLLDGLYSV, SEQ ID NO:4) (peptide)
peptide: FLLDGLYSV
Regarding B6, the “FI (fluorescence index)” value was determined as 2.04 and the Mean fluorescence intensity came to 692.

B7: mutant polypeptide's variant (depicted in FILDGLYSL, SEQ ID NO:2) (peptide)
peptide: FILDGLYSL
B7: the “FI (fluorescence index)” value came out at 1.99 and the Mean fluorescence intensity was found to be 681.
